The values below come from US20220226469A1.

B1: SIRP9 (antibody, V domains shown)
VH: EVQLQESGAELVRPGASVKLSCKALGYTFTDYEIHWVKETPVYGLEWIGDIHPGSGGTANNQKFKGKATLTADKSSNTAYMELSSLTSEDSAVYYCTRAVSGYYAMDYWGQGTSVTVSS
VL: DIQMTQSSSSFSGSLGDRLTINCKASEDIYDRVAWYQQKPGNAPRLLISGTASLETGVLSRFSGSGSGKDYTLSINGLQAEDVATYYCQQYWTTPWTFGGGTKLEIK
B2: SIRP2 (antibody, mouse IgG1, kappa, V domains shown)
VH: EVKLVESGGGLVQPGGSLKLSCAASGFSFSGCTMSWIRQTPERRLEWVAYISNGGDITYYPDTVKGRFTISRDNAKNSLYLQMSSLKSEDTAMYYCARLDGYYYAMDFWGQGTSVTVSS
VL: DILLTQSPAILSVSPGERVSFSCRASQSIGTSIHWYQQRTNGSPRLLIKYGSESISGIPSRFSGSGSGTDFTLSINSVESEDIADYYCQQSNTWPLTFGDGTKLELKR
B3: SIRP10 (antibody, V domains shown)
VH: EVQLQESGAELVRPGTSVKMSCKAAGYTFSNYLIGWIKQRPGHGLEWIGDIYPGDNNTNYNEKFRVKATLTADTSSNTAYMHLTSLTSEDSAIYYCAGGTDYDGFANWGQGTLVTVSA
VL: ENVLTQSPAIMSASLGEKVTMSCRASSSVNYMYWYQQKSDASPKLWIYYTSKLAPGVPARFSGSGSGNSYSLTISSMEGEDAATYYCQQFTSSPFTFGSGTKLEIK
B4: SIRP7 (antibody, V domains shown)
VH: EVQLQQSGPELVKPGASVKMSCRASGYTFSTYVMHWIKHRPGQGLEWIGYINPNNDGPNYNEKFKGKATLTSDISSSTAYMELSSLTSEDSAVYFCSRWDSYNSAAGFAYWGHGTLVTVSA
VL: EIVLTQSPTTMAASPGEKITIICSASSSISSNFLHWYQQKPGFSPRFLIYRTSILASGVPTRFSGSGSGTSYSLTIDTMEAEDVATYYCQQGSGLPLTFGSGTKLEIK
B5: SIRP1 (antibody, mouse IgG1, kappa, V domains shown)
VH: QVQLQQSGAELMKPGASVKISCKATGYSFTKYWIEWVKQRPGHGLEWIGEILPGSVITNYNEKFKGKATFTADTSSNTVYMQLSSLTSEDSAVYYCTKWGLYDSDDGVDYWGQGTTLTVSS
VL: ENVLTQSPAIMSASLGEKVTMSCRASSGVNYMYWYQQKSDASPKLLIYYTSILAPGVPARFSGSGSGNSYSLTISSMEGEDAATYYCQQFTSSPYTFGGGTKLEIKR
B6: SIRP8 (antibody, V domains shown)
VH: EVQLQESGGGLVKPGGSLKLSCAASGFTLSTYTMSWVRQTPEKRLEWVAIITSGDTYTYYPDSVKGRFTISRDNAKNTLYLQMSSLKSEDTGMYYCTRDRPLFHWGQGTTLTVST
VL: QIVLTQSPAIMSASPGEKVTMTCSASSSVSYMYWYQQKPGSSPRLLIYDTSNLASGVPVRFSGSGSGTSYSLTISRMEAEDAATYYCQQWSSFPWTFGGGTKLEIK
B7: SIRP23 (antibody, human IgG4 S228P, kappa, V domains shown)
VH: EVQLQQSGPDLVKPGASVKISCKASGYSFTDYFLNWVKQSHGKSLEWIGRINPYNGDSFINQNFRDKATLTVDKSSTTAHMDLLSLTSEDSAIYYCGRGGYDGYFIAYFDYWGQGSLVTVSA
VL: DIKMTQSPSSMYASLGQRVTITCKASQDINSHLSWFQEKPGKSPKTLIYRANRLADGVPSRFSGSGSGQDYFLTISSLEYEDVGIYYCLQYDEFPYTFGGGTKLEIKR
B8: SIRP4 (antibody, V domains shown)
VH: B7 VH
VL: DIKLTQSQSSMYSSLGQRVTITCKASQDINSHLSWFQEKPGKSPKTLIYRANRLADGVPSRFSGSGSGQDYFLTISSLEYEDVGIYYCLQYDEFPYTFGGGTKLEIK
B9: SIRP6 (antibody, V domains shown)
VH: QIQLVQSGPELKKPGETVKISCKASGYTFTDYGVNWVKQGPGKDLQWMGWVNTNTRESTYVEDFKGRFAFSLETSASTAYLQINNLKNEDSSTYFCARGAYDAYYYYYGMDYWGQGTSVTVSS
VL: DIQMTQSPASLSASVGETVTITCRASENIYSYLTWYKQKQGKSPQLLVYNAKTLAEGVPSRFSGSGSGTQFSLKINSLQPEDFGSYYCQHHYGSPRTFGGGTKLEIK
B10: SIRP12 (antibody, human IgG4 S228P, kappa, V domains shown)
VH: QVQLVQSGAEVKKPGASVKVSCKASGYSFTDYFLNWVRQAPGQGLEWMGRINPYNGDSFINQNFRDRVTMTRDTSTSTVYMELSSLRSEDTAVYYCARGGYDGYFIAYFDYWGAGTTVTVSS
VL: DIQMTQSPSSLSASVGDRVTITCKASQDINSHLSWYQQKPGKAPKLLIYRANRLATGVPSRFSGSGSGTDFTFTISSLEYEDIATYYCLQYDEFPYTFGGGTKLEIKR
B11: SIRP18 (antibody, human IgG4 S228P, kappa, V domains shown)
VH: EVQLVQSGAEVKKPGESLKISCKGSGYSFTDYFLNWVRQMPGKGLEWMGRINPYNGDSFINQNFRDQVTISADKSISTAYLQWSSLKASDTAMYYCARGGYDGYFIAYFDYWGAGTTVTVSS
VL: B10 VL
B12: SIRP15 (antibody, human IgG4 S228P, kappa, V domains shown)
VH: B10 VH with A16S, M70I, R72A, T74K, V79A
VL: B10 VL
B13: SIRP21 (antibody, human IgG4 S228P, kappa, V domains shown)
VH: B10 VH with R72V
VL: B10 VL
B14: SIRP3 (antibody, mouse IgG1, kappa, V domains shown)
VH: EVQLQQSGPEVVKPGASVKMSCKASGYTFTSYVMHWVKQKPGQGLEWIGYINPYNDGPKYNEKFKGKATLTSDKSSSTAYMELSSLTSEDSAVYFCARWDYFNSASGFAFWGQGTLVTVSA
VL: EIVLTQSPTTMAASPGEKITIICSASSIIGSDFLHWYQQRPGFSPKFLIYRTSILASGVPTRFTGSGSGTSYSLTIGTMEAEDVATYYCQQGSGLPLTFGSGTKLEMKR
B15: SIRP5 (antibody, V domains shown)
VH: QVQLQQSAAELARPGASVKMSCKASGYTFTSYTMHWVKQRPGQGLEWIGYINPTIGYTEYNQKFKDKTTLTADKSSSTAYMQLSSLTSEDSAVYYCVRLVITSVLGRAMDYWGQGTSVTVSS
VL: QIVLTQSPALMSASPGEKVTMTCSASSSVSYMYWFQQKPRSSPKPWIYLTSNLASGVPARFSGSGSGTSYSLTISSMEAEDAATYYCQQWSGNPFTFGSGTKLEIK

Numbering of substitutions follows the chain as printed.

For the experiment, the target named is Fc tagged human SIRPα (ACRO #SIG-H5251, genotype variant 1) (human) (UniProt P78324). Kind of experiment: solid-phase ELISA on plate-coated Fc tagged human SIRPα; apparent Kd. A general note: In an ELISA, binding on a coated surface is turned into a signal by an enzyme label.
Chain of Fc tagged human SIRPα (ACRO #SIG-H5251, genotype variant 1) (human) (P78324 31-370, change not shown): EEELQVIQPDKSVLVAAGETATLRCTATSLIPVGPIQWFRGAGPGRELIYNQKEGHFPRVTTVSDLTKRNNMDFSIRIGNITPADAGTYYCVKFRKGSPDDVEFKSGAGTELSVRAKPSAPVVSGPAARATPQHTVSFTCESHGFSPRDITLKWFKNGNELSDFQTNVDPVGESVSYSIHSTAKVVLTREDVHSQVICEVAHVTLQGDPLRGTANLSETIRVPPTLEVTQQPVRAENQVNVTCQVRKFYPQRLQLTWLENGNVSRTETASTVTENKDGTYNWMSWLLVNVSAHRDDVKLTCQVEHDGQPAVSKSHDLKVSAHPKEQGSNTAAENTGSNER
Consider B1, for which the Kd is 0.583 nM.

As to B2, the Kd was determined as 0.182 nM.

Turning to B3, the Kd is more than 10 nM.

As for B4, the Kd turned out to be 0.197 nM.

For the molecule B5, the Kd came out at 0.039 nM.

As for B6, the Kd turned out to be 0.057 nM.

Turning to B7, the Kd is 0.164 nM.

As for B8, the Kd stood at 0.161 nM.

As for B9, the Kd was determined as 0.131 nM.

For the molecule B10, the Kd was found to be 0.165 nM.

Turning to B11, the Kd came out at 0.364 nM.

With B12, the Kd was determined as 0.608 nM.

Regarding B13, the Kd was 0.274 nM.

As to B14, the Kd is 0.289 nM.

For B15, the Kd was determined as 0.065 nM.
